In article PMC314469, “Protein Interaction Networks by Proteome Peptide Scanning” (PLoS Biology, 2004):

T1: Abp1 SH3 (ABP1_YEAST), P15891
T1 chain: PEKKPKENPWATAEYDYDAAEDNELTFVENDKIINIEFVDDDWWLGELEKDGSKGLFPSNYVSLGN


Molecular target: T1, Abp1 SH3 (ABP1_YEAST), P15891
Assay: SPOT array

normalised SPOT signal, Boehringer light units (BLU); mean over the file's lines of this peptide	Binder
3.6	TVPTNHVPNYIKP [YGR165W 78-90]
171	VSDKTKKKTVPVKP [YBL017C 681-694]
20.8	VPLQIVSPQSNKP [YDL140C 507-519]
69.6	VQVQTTTSILPLKP [YGR188C 415-428]
51.1	VLDVSHSKYIPLKP [YGL017W 311-324]
99.6	VILDARLPKNVKP [YDR107C 200-212]
87.4	VLVTEKFPEVMKP [YMR208W 259-271]
87.4	VGGNPDIPSLLKP [YHR080C 52-64]
896	VFSKMAKKLLPYKP [YBR270C 205-218]
103	VNIEDITEPKPDKP [YDR363W 93-106]
352	TVQRYYKTTVPTKP [YKR084C 138-151]
74.7	VDGGMAFNPDPKKP [YER095W 331-344]
176	TYQTLHSPKKFKP [YOR022C 44-56]
96	VMIIFTIPETYKP [YHR048W 242-254]
156	VAIIRYKPYLDRP [YPL221W 502-514]
12.6	VKDYWEHPQAYKP [YMR250W 428-440]
116	VNNEIHYYYPPVKP [YDR321W 235-248]
82	VEFKKDLEEGPTKP [YML074C 275-288]
935	VSGTRQSPIPKKP [YML007W 309-321]
89.3	VEEYWGKKFEPERP [YJR137C 1184-1197]
27.7	VEQSATIPESIKP [YGL238W 669-681]
172	VDRGVGEWYKPDRP [YNL108C 86-99]
416	VRDAYEKTLPPKRP [YKL032C 424-437]

Further lines, the binder ahead of its results:

Binder	normalised SPOT signal, Boehringer light units (BLU); mean over the file's lines of this peptide
VENLGTNVTPPLRP [YPL242C 22-35]	64.4
VIWQATTPVDVKP [YLR381W 153-165]	57.5
VFSGVTNQPSPIRP [YER129W 661-674]	98.3
VIAVNDNPVVPRP [YOR324C 73-85]	140
VQMRMDPNQQPEKP [YDR258C 83-96]	247
VFYENNSPEKEKP [YOR129C 465-477]	118
VDDYNASFELPLKP [YGL134W 27-40]	95.4
VFKDPEGDYKPIKP [YLR084C 1187-1200]	-0
VLNTRESPDSLKP [YGR109W-B 421-433]	103
VDGLSNPPTLLRP [YGL169W 237-249]	21.8
TYFSVEAPPSIRP [YEL044W 99-111]	76.1
TYVHAWDMRSPHRP [YDR128W 137-150]	489
VDQLDTASIHPSRP [YGL115W 118-131]	110
VERNFTDPGDGKP [YMR238W 135-147]	73
VNYVDYYPLPDKP [YGL137W 187-199]	40.6
VLSTLYQPNGFRP [YHR194W 300-312]	54.5
VEYDYVDPRQLKP [YGL236C 383-395]	51.9
VELVTVRPLDEKP [YJL105W 434-446]	20.9

Binder	normalised SPOT signal, Boehringer light units (BLU); mean over the file's lines of this peptide
VLPVKIQPPLLRP [YPR175W 10-22]	149
VADVQWSPHPAKP [YDR128W 70-82]	66.3
VAFILLTPIHSRP [YGL160W 214-226]	48.3
VEKINTFKTLPTKP [YDL202W 178-191]	385
VGNYAYGAGHPMKP [YNL330C 29-42]	97.4
VPKSTHDPSLAKP [YER167W 235-247]	82.5
VNPIGITPLGPKP [YMR251W 349-361]	62.5
VITPSQLPNSVRP [YFL036W 250-262]	214
VLRLTDIEKTPQRP [YFL001W 315-328]	122
VDRDSAIFYLPQRP [YKL188C 543-556]	66.1
VEVDMSLPENQKP [YBR111C 165-177]	20.2
VLALNNLSQDPPKP [YJR033C 294-307]	105
VIRNFRFVGLPKKP [YPR155C 202-215]	145
VDTFEDEPDKLKP [YGR210C 280-292]	93.9
VAIIYYKPYLDRP [YGL139W 508-520]	76.3
VPPTQSLPNGKKP [YER035W 35-47]	79.3
VIAILNPEVLPWRP [YIL150C 263-276]	78.9
VIIEFSSPNIAKP [YDR341C 145-157]	38.1
